Assay results as given in paper PMC5758883, “Analysis of the natively unstructured RNA/protein-recognition core in the Escherichia coli RNA degradosome and its interactions with regulatory RNA/Hfq complexes” (Nucleic Acids Research, 2017).

T1: RNase E 603–850 with a C-terminal hexahistidine tag (Escherichia coli, UniProt P21513 603-850)
T1 construct: also called Rne; source: E. coli BL21 (DE3), co-expressed with RhlB (pRSFDuet-1) with or without enolase (pET11-a); alone: RhlB and enolase removed on the column with 8 M urea; not shown: His6, C-terminal, kept
T1 sequence (looked up): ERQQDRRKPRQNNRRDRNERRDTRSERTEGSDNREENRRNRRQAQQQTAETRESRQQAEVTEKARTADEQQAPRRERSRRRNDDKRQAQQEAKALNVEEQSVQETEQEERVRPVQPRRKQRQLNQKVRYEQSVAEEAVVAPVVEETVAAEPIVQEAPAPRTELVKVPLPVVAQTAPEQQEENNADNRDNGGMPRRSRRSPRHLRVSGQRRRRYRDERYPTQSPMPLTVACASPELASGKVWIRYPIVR

B1: DEAD-box helicase RhlB (enzyme, Escherichia coli, UniProt P0A8J8 1-421, looked up)
chain: MSKTHLTEQKFSDFALHPKVVEALEKKGFHNCTPIQALALPLTLAGRDVAGQAQTGTGKTMAFLTSTFHYLLSHPAIADRKVNQPRALIMAPTRELAVQIHADAEPLAEATGLKLGLAYGGDGYDKQLKVLESGVDILIGTTGRLIDYAKQNHINLGAIQVVVLDEADRMYDLGFIKDIRWLFRRMPPANQRLNMLFSATLSYRVRELAFEQMNNAEYIEVEPEQKTGHRIKEELFYPSNEEKMRLLQTLIEEEWPDRAIIFANTKHRCEEIWGHLAADGHRVGLLTGDVAQKKRLRILDEFTRGDLDILVATDVAARGLHIPAVTHVFNYDLPDDCEDYVHRIGRTGRAGASGHSISLACEEYALNLPAIETYIGHSIPVSKYNPDALMTDLPKPLRLTRPRTGNGPRRTGAPRNRRRSG
notes: E. coli DEAD-box helicase RhlB; HDX-MS covers both RecA-like domains and the tail 400–421, so probably the whole protein; also called RhIB
B2: enolase (enzyme, Escherichia coli)
chain: MSKIVKIIGREIIDSRGNPTVEAEVHLEGGFVGMAAAPSGASTGSREALELRDGDKSRFLGKGVTKAVAAVNGPIAQALIGKDAKDQAGIDKIMIDLDGTENKSKFGANAILAVSLANAKAAAAAKGMPLYEHIAELNGTPGKYSMPVPMMNIINGGEHADNNVDIQEFMIQPVGAKTVKEAIRMGSEVFHHLAKVLKAKGMNTAVGDEGGYAPNLGSNAEALAVIAEAVKAAGYELGKDITLAMDCAASEFYKDGKYVLAGEGNKAFTSEEFTHFLEELTKQYPIVSIEDGLDESDWDGFAYQTKVLGDKIQLVGDDLFVTNTKILKEGIEKGIANSILIKFNQIGSLTETLAAIKMAKDAGYTAVISHRSGETEDATIADLAVGTAAGQIKTGSMSRSDRVAKYNQLIRIEEALGEKAPYNGRKEIKGQA
notes: E. coli enolase; No tag is named for enolase in either construct; also called glycolytic enzyme enolase; enolase dimer; source: E. coli Rosetta (DE3), pETDuet, co-expressed and co-purified with His6-AR2–EBS

What was measured:
[1] = target: T1, RNase E 603–850 with a C-terminal …; assay: SEC-MALS; co-expressed, co-purified ternary and binary complexes loaded at 5.6 and 4.0 mg/ml on Superdex 200 10/300; 50 mM Tris–HCl pH 7.5, 100 mM NaCl, 50 mM KCl, 5 mM MgCl2, 2 mM DTT; conditions: both partners purified
[2] = target: the molecule itself; assay: native MS; native ESI and ion-mobility mass spectrometry of the co-purified ternary and binary complexes

Binder | stoichiometry N [1] | stoichiometry N [2]
B1 | 1 | 
B2 | 2 | 2
